# Test results: the DeepSol protein solubility set
# Test: soluble on expression in E. coli; label from the status in PepcDB or PDB records
row,Sequence,soluble on expression in E. coli
1,MGSDKIHHHHHHNVYSLPANGGRLIGELQTHVVEKGDYFKTIADKYNIGILELMETNPGVDPFLPTPGTQLVIPTQMLLPDVPRKGIVINLPELRLYYFPKNGREVHVFPVGIGRIGRETPEMTTKIKARIPNPSWTPPASLRAEHLRERGEVLPPVVPAGPDNPLGKYAMQLSYGDGSYLIHGTNKDFGIGMRVSAGCIRLNPDDIEWLFHQAKYGDSVRVINQTVKIATEPDGRQIIEVHSPLSKTEDQPREKVISLSSKVVKFISQESVDNTKANDALLTQNGIPMVISHPPLTAAQDLEITP,not soluble
2,MSLRDLKTLLIVIDGVSYSVFNQFRYNLDTMNNLIENGSFGKLESVFPTITPVALASLFTGYLPLNHGITSTKIFIKGNSLSKPLSAHSSTPLKVDPIWYLLAKKGYKVVVASAPQALPDKWKLKNLTLFDPYKSKIKECSDGALLNIGNTTINEVNFDIESNNNEYTIKITDIENNTLSLKLRQNEWTSPLEVIMGCKGKEMKGTFRLKGLSNGVYLTPVSFLIPSWSNNQELQNEIWENVVKKYGMLLDGDYISLKSNIIGFSEYYETLKFAYEFFYNYSLYLLKREEWDFAITYLPIVDNIQHLLFGVDDSQSLDYVFQVYKMADNFVKAHIELADNIIICSDHGINKVKKRLYLNKFLEELNVLKTVDDKKIDWKRTKAYYGGGGIIRINLREREKFGIVGKKEFNKLIKYLTINLERLEDPDTGERIFTVIYSNETPASDRQGDIMIDGVNPKYSISSNIEKDTIFENVIPYRTTTADHGYYRNDDINGIIIFYGKNFTKKQVNMKIVDVTPTILKLYGINCKSDGKIVNEVFKNGHADSTKEGHHHHHH,not soluble
3,MAGSVGEETEPEWIKRVKLEGAVPCLKPDDNCKNGWTTPSPDTFMVRGPKYFSDKVKIPAGDFLLKPLGFDWIKGPKKLSEILSYPSSRIRKVIDEEFQKDGTKPFVWAFNLQLPHKDNYSAVAYFVTTEPILEGSLMDRFLKGDDGFKKSRLKLIANIVKGPWIVRKAVGEQAICVIGRALSCKYVSGENFVEIDVDIGSSMVASAIVHLAFGYVTTLTVDLAFLIESQTEAELPEKLLGAVRFSELQTESATSIELSSSTSNDQWDQTTSERSSWWKSIGNGFSNLLNQDTANMNNTSHGDIQKDEHVQKQ,soluble
4,MLEDYAISLEEVNFNDFIVVDVRELDEYEELHLPNATLISVNDQEKLADFLSQHKDKKVLLHCRAGRRALDAAKSMHELGYTPYYLEGNVYDFEKYGFRMVYDDTCDKKN,soluble
5,MGSDKIHHHHHHVMTKAADGMSDWDNMAIICDVLGRAPDVEMGSIGEGWSLCRWRQFVGAYTLPALPQPIFTVHIAGKPQVKTWDKGGWTETSSIPGCATIVPAGMPTGWLVDGELDVVTLSMASDVLAGQPHADQFNRMRFAFSDPLGVALTRQILSEIYAPQAEERTAYVSAMVGALKAHILSGPPAHGNPVDIPVSDFSAYRLHKIMNAILADPAAEHSLEAMAAVAGVTPSHFCRLFKKAIGITPHQYVMKARLDRAQQMLVQTEMSLAALSEAAGFASQSHFSRAFRSWFGMAPSDFRQQERRRTD,not soluble
6,MSLTYYLSIDYGGTNTKALIFDKLGHQIAVSSFETLKNETQSGHRQVNLVKTWNAITSAIREVIQISKLSPEQISAVACIGHGKGLYLLDNKLEPLEQGILSTDNRAKDLAQYFESKLDNIWELTRQHIFPSQSPVILRWLKDYQPETYKSIGAVLSAKDFIRYKLTGKVQQEYGDASGNHWINFQTGTYDPAILDFFGIREIENSLPELIDSADLVPGGISSQAAKETGLVEGTPVVGGLFDIDACALGSGVLESDTFSVISGTWNINTYPSLKPAKQDSGLMTSYFPDRRYLLEASSPTSAGNLNFMLKMLMHQEIDNAKSSGGSIYDNLEEFLTHTDATHHGLIFFPFLYGSNTSQDASACFFGLTTKSTKSQMIRAVYEGIAFAHKQHITDLIKSRGSVPKIIRFSGGATNSPAWMQMFSDILNFPIETVEGTELGGLGGAILARHALDKISLKEAVQDMVRVKAIYKPQLSEVKGYKKKYHAYQKLLETLDPIWSELGHLNEGHHHHHH,soluble
7,MCGKTILLEVTPCDNFVFNKSTNLTDTAYVTLKNISEKPVCFKVKTSVPNMYVSRPNPDLLKPGEARQLSVKFRSSDKVSLNAKSYKLKIESCEFESEDIDDLKSFWSSIPNEKILVHKSPIILGTGSSPDFRNDQIASESSRQSSPIQNVSDDGKSSHHSTAKQLQENNENSKSLKYTKQLVEVPLGENQQADQTGTTCDKKDEFQKKNQLEVEIKFVDKIHEIKSQLEDSFELKLKEMEMRLEEKFEKRISRLTQFMETISLSNSPGNSRRVFELDDNFSIVAKKELEQMRQDFEKVLDGQNKIAEEKMNELRKRREELQV,not soluble
8,SGSAARQPLFSFGVIADVQYADISDGRSFLGVPRYYRNSILVLQRAVETWNQHGNLKFVINMGDIVDGFCPKDQSLAATKKLVHEFEKFNGPVYHMIGNHCLYNLPREELLPLLKIPGRDGNAYYDFSPTPEYRVVVLDGYDISAVGWPQEHPNTIAALKILEEKNPNTDKNSPAGLEDVARRFVKYNGGVGEKQLQWLDSVLQDASNSNQRVIVCGHVPMSPGVASKAALLWNFDEVMNIIHKYDSVKVCLSGHDHKGGYFVDSHGVHHRSLEAALECPPGTYSFGYIDVYDNKLSLVGTDRMQSTDFEN,soluble
9,MMSLAWPLFRVTEQAALAAWPQTGCGDKNKIDGLAVTAMRQALNDVAFRGRVVIGEGEIDHAPMLWIGEEVGKGDGPEVDIAVDPIEGTRMVAMGQSNALAVMAFAPRDSLLHAPDMYMKKLVVNRLAAGAIDLSLPLTDNLRNVAKALGKPLDKLRMVTLDKPRLSAAIEEATQLGVKVFALPDGDVAASVLTCWQDNPYDVMYTIGGAPEGVISACAVKALGGDMQAELIDFCQAKGDYTENRQIAEQERKRCKAMGVDVNRVYSLDELVRGNDILFSATGVTGGELVNGIQQTANGVRTQTLLIGGADQTCNIIDSLH,soluble
10,GSSGSSGHESETTTSLVLERSLNRVHLLGRVGQDPVLRQVEGKNPVTIFSLATNEMWRSGDSEVYQLGDVSQKTTWHRISVFRPGLRDVAYQYVKKGSRIYLEGKIDYGEYMDKNNVRRQATTIIADNIIFLSDQTKEKE,soluble
11,MLEKIYSVLGTGSCLVKDGEIIESYLLSDEEVKLIEKIAKVIPFLPEKFKVGFFEHEGGRIIAIKHGEVFICFPARSDNVMSELRKVEVEVYDKILSP,not soluble
12,MSPMRIGLVCIRGSVPAFENFGFLPTDIVGSNGLVNGSRAHRVLDGIIIPGGSIVESGSLSPELAFEIRRMASDGKFVLGICSGFQALAERTDIGRKSPCPVYREGLGLLNVTFHPMISNDRVEATITGESFLTSGMSGERITGFHCHTYGEIRGDAPEIMKSRIVRADYHERPGEILSGVCSDDGNVAGTMVHGCLDENQTLVSNILKFLDADETARERILEANRKLREALRSELGISTGIRVMDRGGTRGTPPAIMIASTGSDSGKTFILTGLAGALRRRGLRVGVIKVGPDVRDIVPALYLIKEPMEEHSSIRIGRLGWMELRDVLESVRGRYDIILIEGVMSILTGLLNDITPYSGAEIALAAGIPLIMVAGCSKGGIESAVVDLDAHISVLEGLGLEVSCGILNRVYDMDIFERASGGRYLAIPRVEMSERGGTPEVEIKLEDFCLKAMETVEEHLDVDTLISFAKKPEFRGYMGPEEIKKVFSPLEHHHHHH,not soluble
13,MLVNTKAKVGVFSIALGAYLPQFPSLVPEFEAQYEAFKKTIPDTVEIIDGGMVTTKEQSMVAGDKFRAADVDIVFLQMLTYATSYNMLPAIRDLDVPVVLVNVQKLKALDYDHTDIAAWLGEGYACGAVGEAVADLERAGKRHAVITGVVEGGDPAVQAEIEDWCKAAQVRRRFRDTNIAQIGRPYPGMMDLYIDETNLYNRMFLYTKQFDWEKMWAIADDITDEEAIRAKAQDILDTFDIEDGGTIEKVWDMAKYVVAFEKWVKDEHLSMVASHYDGFAQGKAGVLDSMLIPAFSMLIKQGTACAVEGDMKVAMAMSILKTISGTGQLSEMYSIDFNEDICIIGHSGSGDADISDKKPTMKIVPVFHGKTGGGYLTQFYPYTGPVTYLAITQDKDGHFKFVVAEGVNEEGPILSFGDTNMRTRFTCGAREFVNRWSEAGPTHHMAAATGRHIDTILKVAKIFNIPVDIVTR,not soluble
14,MAHHHHHHMQFGPVVSEAEIRTVQDGIANGVRSDGRSLTQRRPFTVVTNRGSTTHFEGSSVEVHCDGTTVVAAATPSVVELDIDRGQAPRGSLFVNIDAVPAVVEHYAQSVRNNSARYRQAFLSFLATAIRQTFGAQGVTAEERQQQLGIAEAEIIADEGDDEQREDAFGGRGAAEEKPVEETAEQRVDCCGFPGEQLYIGGGYAFRIDVDAHVLQAHGGSLASIVALAVHAALKTVRLPSVTLHEASAGFSLEVNYSKPYATAVNWSRLPVLSVVHVSPTRHYVVDPTRLEELALPQQLRVAVNSFGQVFHMRFQQLPSRRGNAMRLIRSPREEAGKDNSNDNSERDVDGDDVDDSSRRGFDAGVKGTVGGMNMPDMAAVLHAAVHISQAVIAECDEALAGSSG,not soluble
15,MGRWWRYKWITFHPSLTQHWLWYAYNTKTGGVLAYTFGPRNDETCRELLALLTPFCIGMVTSDDWGSYAREVPKEKHLTGKIFTQRIARNNRTLRTRIKRLARKTICFSRSVEIHEKVIGSFIEKHMFYLEHHHHHH,soluble
16,MGSDKIHHHHHHMMDMTTRPTLQHFLSDTKHGPYVSLYMSWPENTSVEALRLRFKNMVKHTKSVMTETYPETDFSAYAAELEPYEQDPTFWQTCETNGFGMLTNGAQTYVTPMYEAVDEVAMVTDMPQILPLMLDEATATDFDILALNADSIQMYHNHGHQVRPISLPDDAPQTLKGTLGTEIRGGETNSVSQGGGRVTHHGHNEKSAEKASDQRRFYQAVDQYVLANHSNPHKMPLVLMGLAENVAVFREISKNHHLLPKLAVVKSPANLDFVELDDLLTPVRETLRDRRRQNFAEIIENARGNDSYTDHLEEVVQAAVAGRIAILFVQAGARIHARLEGTQIERDSINAQHANLLNDLADIVLSHGGQVELLTEAYLPVEVGAMVRYA,not soluble
17,MGSDKIHHHHHHMRTYTKEIQAIIDNVEKVIIGKENVITQSLAALLAGGHVLLEDVPGVGKTMLVRAFSRSIGLTFKRVQFTPDLLPSDLTGVSMYNQKTSQFEYRPGPLMGNIVLADEINRTSPKTQSALLEGMAEANVTVDGEIHTLPNPFFVMATQNPIEHEGTYPLPEAQLDRFLIKVKMGYPDFQQEMKLLTRFERDEPIETLESVITRDELLRMKEDVKAVHVSQPVKKYIVHLVQATRTHASLYLGASPRSSIALMKVAQAWAYMEGRSFVLPDDVKELLTPVLSHRLILTADARYHGQTAERILEQVKKEVAVPIQQDVESL,not soluble
18,MDKLGLSKRGYFDFALKNKKWILLAVSGYGAFRVYHSPSISQKRKRISKLFTLLLNLIEAASDSAETVSVISKDLTEFLRSDSDQIPNSLKQISKIAKSDELNSSLIRFTQAMTVGLIRGIDDGSGSGFTDRVMDKLFTKSGSGFASAIVGSFARNLVVALYSSAGDGSNSKLLDAVFSDDGRRLIGDCVQRFVSTAVSVYLDKTSDVNVFDDLFAGLTNPKHEGKVKQTLVTLCNSAVETFVRASRKPVQLNRSSSCQDSSQTLTVGSTKQATWIDRVSSSLSVPSNRKYVVDLTGRVTFETVRSLLEVLIERANGKVESYVEKVRERGNETRRFVRVKTSLLHSLCLSLCLQIVEAPWMLTPRN,not soluble
19,GSGMRFYVKDHRNKAMINLHIQKDNPKIVHAFDMEDLGDKAVYCRCWRSKKFPFCDGAHTKHNEETGDNVGPLIIKKKET,soluble
